Reference: US20260209362A1 (VIB VZW, published 2026)
Positions count from the first letter of the chain named. Values belong to the binder of their own block, whether it stands above or below them.

Assays:
[1] = target: T1, biotinylated recombinant human IL-12Rβ2 (human, UniProt Q99665 24-622, random biotinylated); test: BLI (Octet), periplasmic extract on biotinylated hIL-12Rβ2 on streptavidin tips, 1:1 model
T1 construct: Recombinant protein produced in-house, biotinylated; also called hIL-12RB2; human IL-12RB2
T1 sequence: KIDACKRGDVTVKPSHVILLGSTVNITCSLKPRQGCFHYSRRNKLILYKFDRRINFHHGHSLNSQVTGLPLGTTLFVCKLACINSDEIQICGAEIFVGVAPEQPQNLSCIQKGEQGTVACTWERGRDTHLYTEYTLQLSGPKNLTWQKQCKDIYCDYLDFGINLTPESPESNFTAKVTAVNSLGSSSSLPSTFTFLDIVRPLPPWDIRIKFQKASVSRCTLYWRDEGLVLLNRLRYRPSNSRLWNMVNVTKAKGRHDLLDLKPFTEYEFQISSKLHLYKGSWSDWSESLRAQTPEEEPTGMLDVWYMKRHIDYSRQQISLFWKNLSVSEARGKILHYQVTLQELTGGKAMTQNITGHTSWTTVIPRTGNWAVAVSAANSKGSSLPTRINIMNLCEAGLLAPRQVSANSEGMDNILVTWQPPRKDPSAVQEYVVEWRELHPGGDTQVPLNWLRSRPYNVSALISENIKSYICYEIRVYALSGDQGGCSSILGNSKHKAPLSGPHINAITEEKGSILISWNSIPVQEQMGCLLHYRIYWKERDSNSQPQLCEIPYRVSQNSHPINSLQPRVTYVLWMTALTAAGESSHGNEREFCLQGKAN

[2] = target: T2, biotinylated recombinant mouse IL-12Rβ2 (mouse, UniProt P97378 24-637, random biotinylated); test: ELISA, periplasmic extract on biotinylated mIL-12Rβ2, signal over control wells
T2 construct: Recombinant protein produced in-house, biotinylated; also called mIL-12RB2; mouse IL-12RB2
T2 sequence: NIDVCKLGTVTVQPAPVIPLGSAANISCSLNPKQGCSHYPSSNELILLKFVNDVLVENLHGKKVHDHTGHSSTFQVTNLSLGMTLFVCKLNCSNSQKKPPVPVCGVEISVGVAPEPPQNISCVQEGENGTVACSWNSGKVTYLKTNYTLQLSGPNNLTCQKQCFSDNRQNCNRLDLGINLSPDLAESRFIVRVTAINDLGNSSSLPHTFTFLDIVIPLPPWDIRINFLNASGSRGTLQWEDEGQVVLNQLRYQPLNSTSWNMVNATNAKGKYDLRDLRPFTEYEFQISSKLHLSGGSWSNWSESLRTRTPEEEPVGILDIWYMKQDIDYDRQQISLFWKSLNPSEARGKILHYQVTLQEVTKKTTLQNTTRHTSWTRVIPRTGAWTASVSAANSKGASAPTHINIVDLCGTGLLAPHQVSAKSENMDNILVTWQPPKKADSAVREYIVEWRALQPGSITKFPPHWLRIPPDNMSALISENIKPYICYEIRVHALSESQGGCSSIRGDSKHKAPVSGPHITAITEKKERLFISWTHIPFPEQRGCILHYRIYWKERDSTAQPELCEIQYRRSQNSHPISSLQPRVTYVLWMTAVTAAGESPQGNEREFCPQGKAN

[3] = target: T1, biotinylated recombinant human IL-12Rβ2; test: ELISA, periplasmic extract on biotinylated hIL-12Rβ2, signal over control wells
[4] = target: T1, biotinylated recombinant human IL-12Rβ2; test: BLI (Octet), periplasmic extract on biotinylated hIL-12Rβ2 on streptavidin tips
[5] = target: T3, biotinylated recombinant human IL-12Rβ2 (produced in-house) (human, UniProt Q99665 24-622, randomly biotinylated); test: ELISA, periplasmic extract on biotinylated human IL-12Rβ2; control streptavidin-coated blocked wells
T3 construct: also called hIL-12RB2; human IL-12RB2
T3 sequence: T1 sequence

[6] = target: T4, biotinylated recombinant mouse IL-12Rβ2 (produced in-house) (mouse, UniProt P97378 24-637, randomly biotinylated); test: ELISA, periplasmic extract on biotinylated mouse IL-12Rβ2; control streptavidin-coated blocked wells
T4 construct: also called mIL-12RB2; mouse IL-12RB2
T4 sequence: T2 sequence

koff [1]: 0.00302 s⁻¹
ELISA binding mIL-12RB2/control [2]: 1.08 ratio
ELISA binding hIL-12RB2/control [3]: 3.32 ratio
Response [4]: 0.163
B1: anti-IL-12Rβ2 VHH clone 20404 (VHH, not shown: small tags and cut ends)
VHH: QVQLQESGGGLVQAGGSLRLSCAASGRTFSSYAMGWFRQVPGKERDFVAAVSWGGLSTYYADSVEGRFTISRDNAKNTVFLQMNSLKPEDTAVYYCAADRAYEGLGYGEYEYWGQGTQVTVSS
notes: tested as periplasmic extract; also called 3CAHS153

ELISA binding hIL-12RB2/control [5]: 1.2 ratio to control
ELISA binding mIL-12RB2/control [6]: 3.3 ratio to control
B2: anti-IL-12Rβ2 VHH clone 3CAM1 (VHH)
VHH: QVQLQESGGGLVQAGGSLRLSCAASGRTFGSHRMGWFRQAPGQEREFVAAIAWRGGTQYYTDSVKGRFTISRDNANNTVYLQMNSLKPEDAAVYYCVAGEGSSWGDITDPRRYVFWGQGTQVTVSS
notes: Tested as periplasmic extract; CDR3 group 48

koff [1]: 0.00486 s⁻¹
ELISA binding mIL-12RB2/control [2]: 1.38 ratio
ELISA binding hIL-12RB2/control [3]: 3.45 ratio
Response [4]: 0.426
B3: anti-IL-12Rβ2 VHH clone 20391 (VHH, not shown: small tags and cut ends)
VHH: QVQLQESGGGLVQAGGSLRLSCAASGRTVDSYAMGWFRQTPGKEREFVAASWGGGSTYYADSVKGRFTISRDNVKNTMYLQMDSLKPEDTAVYYCAAGPTYYSGPINDNWEGRYDSWGQGTQVTVSS
notes: tested as periplasmic extract; also called 3CRH93

koff [1]: 0.0052 s⁻¹
ELISA binding mIL-12RB2/control [2]: 1.18 ratio
ELISA binding hIL-12RB2/control [3]: 6.45 ratio
Response [4]: 0.565
B4: anti-IL-12Rβ2 VHH clone 20389 (VHH, not shown: small tags and cut ends)
VHH: QVQLQESGGGLVRAGGSLRLSCAASGHTFSNYVMGWFRQAPGKEREFVAAISWGGSNTYYADSVKGRFTISRDNAKNTVYLQMNSLKVEDTAVYYCAADRRFEGWNYYSMDYWGKGTQVTVSS
notes: tested as periplasmic extract; also called 3CRH73

ELISA binding hIL-12RB2/control [5]: 1.06 ratio to control
ELISA binding mIL-12RB2/control [6]: 6.24 ratio to control
B5: anti-IL-12Rβ2 VHH clone 2CAMS29 (VHH)
VHH: QVQLQESGGGLVQAGGSLRLSCAASGLTSSTYVIGWFRQAPGKEREFVAAIMLSGGTTIYADSLKGRCTIYKDNAKNTVYLQMNSLKLEDTAVYYCASGLIYRYSDFPRSQKYNFWGQGTQVTVSS
notes: Tested as periplasmic extract; CDR3 group 54; also called 20534

koff [1]: 0.00354 s⁻¹
ELISA binding mIL-12RB2/control [2]: 0.937 ratio
ELISA binding hIL-12RB2/control [3]: 4.57 ratio
Response [4]: 0.479
B6: anti-IL-12Rβ2 VHH clone 20370 (VHH, not shown: small tags and cut ends)
VHH: QVQLQESGGGLVQTGGSLRLSCVASGRTFNWSAMGWFRQPPGKEREVVATISGGGTSAYYADSVKGRFTISRDGAKNTLYLQMNSLKPEDTAVYYCAADRVDYRMTLTQNGNHYWGQGTQVTVSS
notes: tested as periplasmic extract; also called 2CRH76

ELISA binding hIL-12RB2/control [5]: 0.969 ratio to control
ELISA binding mIL-12RB2/control [6]: 6.41 ratio to control
B7: anti-IL-12Rβ2 VHH clone 2CAMS52 (VHH)
VHH: QVQLQESGGGLVQPGASLRLSCATSGPTLSTYAMGWFRQAPGKEREVVATISWSGGRVTYVDSVKGRFTISRDNAKNTAYLQMNRLRPDDTAVYTCAARESDYGAYDYWGQGTQVTVSS
notes: Tested as periplasmic extract; CDR3 group 55; also called 20535

ELISA binding hIL-12RB2/control [5]: 1.41 ratio to control
ELISA binding mIL-12RB2/control [6]: 6.72 ratio to control
B8: anti-IL-12Rβ2 VHH clone 3CRM95 (VHH)
VHH: QVQLQESGGGLVQAGDFLRLSCVFSGGTFGDYSMGWFRQAPGKEREFVAAIRWSGDSTQYAEAVKGRFTISRDNAKSTVYLQMSSLKPEDTAVYYCAADPSYYIGPNHTPSRYRDWGQGTQVTVSS
notes: Tested as periplasmic extract; CDR3 group 44; also called 20465

ELISA binding hIL-12RB2/control [5]: 1.25 ratio to control
ELISA binding mIL-12RB2/control [6]: 5.98 ratio to control
B9: anti-IL-12Rβ2 VHH clone 3CAM65 (VHH)
VHH: QVQLQESGGGLVQAGGSLRLSCAPSGRTFTTYVMGWFRQAPGKEREFVAHISWSGGRTYYADSVKGRFTISRDNAKNTSYLQMNSLKPEDTAVYYCAAARSDAVRIGYAEGYEYWGQGTQVTVSS
notes: Tested as periplasmic extract; CDR3 group 49; also called 20513

ELISA binding hIL-12RB2/control [5]: 1.51 ratio to control
ELISA binding mIL-12RB2/control [6]: 3.22 ratio to control
B10: anti-IL-12Rβ2 VHH clone 2CAM18 (VHH)
VHH: QVQLQESGGGLVQVGDSLKLSCVASGTTFSTHVMAWYRQAPGKQREWVASIDSAGTTNYKDAVKGRFTISRDNVKRTVYLQMNNLKPEDSAVYLCSIPSRNAWGQGTQVTVSS
notes: Tested as periplasmic extract; CDR3 group 45; also called 20475

ELISA binding hIL-12RB2/control [5]: 1.05 ratio to control
ELISA binding mIL-12RB2/control [6]: 5.85 ratio to control
B11: anti-IL-12Rβ2 VHH clone 2CRMS29 (VHH)
VHH: QVQLQESGGGLVQAGGPLRLSCAASGRTFSGSAMGWFRQAPGKEREFVAAITWVGGFTYYADSVKGRFTISRDNAKNTVYLQMNNLSPEDTAVYSCAAQAYHKSGYYYPPLYDYWGQGTQVTVSS
notes: Tested as periplasmic extract; CDR3 group 52; also called 20521

ELISA binding hIL-12RB2/control [5]: 1 ratio to control
ELISA binding mIL-12RB2/control [6]: 8.02 ratio to control
B12: anti-IL-12Rβ2 VHH clone 2CAM39 (VHH)
VHH: QVQLQESGGGLVQAGGSLRLSCAASGRTFSTYAMGWFRQAPGKEREFVAAISWSGGSTYYADSVKGRFTISRDNAKNTGYLQMNSLKPEDTAVYVCAADAEDPILYGSSWNNRRKEYDYWGQGTQVTVSS
notes: Tested as periplasmic extract; CDR3 group 46; also called 20482

koff [1]: 0.00274 s⁻¹
ELISA binding mIL-12RB2/control [2]: 1.77 ratio
ELISA binding hIL-12RB2/control [3]: 16.1 ratio
Response [4]: 0.426
B13: anti-IL-12Rβ2 VHH clone 20372 (VHH, not shown: small tags and cut ends)
VHH: QVQLQESGGGLVQAGGSLRLSCAASARTESMYAMAWFRQAPGKEREIVAGIIQSGGTTYISDYMKGRFSIDRGNAENTVYLQMDSLKPEDTAVYSCAAKVSSGTPSDIQISQSRWYDHWGQGTQVTVSS
notes: tested as periplasmic extract; also called 2CRH82

ELISA binding hIL-12RB2/control [5]: 0.974 ratio to control
ELISA binding mIL-12RB2/control [6]: 10.4 ratio to control
B14: anti-IL-12Rβ2 VHH clone 2CAM45 (VHH)
VHH: QVQLQESGGGLVQAGGSLRLSCAASGFTFDDYAIGWFRQAPGKEREGISCISSSDYGTYYAGSVKGRFTISSDNAKNTVYLQMNSLKPEDTAVYYCAAEAISEYDCLGINYGMDYWGKGTQVTVSS
notes: Tested as periplasmic extract; CDR3 group 47; also called 20485

koff [1]: 0.00636 s⁻¹
ELISA binding mIL-12RB2/control [2]: 1.12 ratio
ELISA binding hIL-12RB2/control [3]: 5.01 ratio
Response [4]: 0.69
B15: anti-IL-12Rβ2 VHH clone 20358 (VHH, not shown: small tags and cut ends)
VHH: QVQLQESGGGSVQPGGSLRLSCGASGFTFSSFGMHWFRQAPGKGQEWAATISSSGGTTYYSDSVKGRFTISRDNAKNTLYLQMNSLKPEDTALYYCARDVTGAVRGQGTQVTVSS
notes: tested as periplasmic extract; also called 3CAH34

koff [1]: 0.00383 s⁻¹
ELISA binding mIL-12RB2/control [2]: 1.11 ratio
ELISA binding hIL-12RB2/control [3]: 3.49 ratio
Response [4]: 0.388
B16: anti-IL-12Rβ2 VHH clone 20408 (VHH, not shown: small tags and cut ends)
VHH: B15 VHH with P14A, A48V
notes: tested as periplasmic extract; also called 3CAHS172
